Measured values taken from patent US20200299408A1 (Genentech, published 2020).

How the values were obtained:
Assay in all cases: SPR (Biacore 4000): CD3εγ variant captured from the periplasmic fraction on UCHT1v9; analyte a bispecific antibody with one 38E4v1 arm and one irrelevant arm, 0.39-100 nM
[1] = target: T1, G9A
T1 construct: Residue number counts from the N-terminus of CD3ε; also called CD3εγ G9A
T1 single chain CD3ε-26mer linker-CD3γ: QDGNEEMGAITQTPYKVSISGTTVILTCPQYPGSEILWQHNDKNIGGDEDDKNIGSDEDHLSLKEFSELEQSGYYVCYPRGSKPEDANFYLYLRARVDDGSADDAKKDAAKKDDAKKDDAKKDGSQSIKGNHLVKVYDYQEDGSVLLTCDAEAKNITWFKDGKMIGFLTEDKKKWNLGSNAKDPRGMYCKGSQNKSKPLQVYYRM
Protocol: (§1) The secreted CD3εγ variants were captured from the crude periplasmic fraction using anti-CD3 antibody UCHT1v9. UCHT1v9 was immobilized on a CM5 serios S chip through amine coupling using the anti-human IgG (Fc) antibody capture kit (BR-1008-39) from GE Healthcare. SPR measurements were performed on the Biacore 4000 instrument, utilizing kinetic evaluation software. In order to measure monovalent binding affinities, anti-CD3 bispecific antibodies were used in which one arm was the anti-CD3 to be tested and the arm recognized an irrelevant antigen. The bispecific anti-CD3 antibodies were passed over the captured supernatant in a concentration series of two-fold dilutions from 0.39 to 100 nM. The resulting kinetics (FIG. 13D) were measured and calculated using Biacore 4000 BIAevaluation software (product code 28-9664-57).

[2] = target: T2, Q1A
T2 construct: Residue number counts from the N-terminus of CD3ε; also called CD3εγ Q1A; CD3 mutant Q1A
T2 single chain CD3ε-26mer linker-CD3γ: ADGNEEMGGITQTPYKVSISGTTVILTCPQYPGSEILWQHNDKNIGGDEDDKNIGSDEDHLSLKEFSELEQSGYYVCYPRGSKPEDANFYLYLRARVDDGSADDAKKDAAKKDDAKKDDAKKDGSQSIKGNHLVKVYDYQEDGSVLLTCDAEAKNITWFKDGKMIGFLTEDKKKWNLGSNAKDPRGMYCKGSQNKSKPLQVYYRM
Protocol: as §1

[3] = target: T3, M7A
T3 construct: Residue number counts from the N-terminus of CD3ε; also called CD3εγ M7A
T3 single chain CD3ε-26mer linker-CD3γ: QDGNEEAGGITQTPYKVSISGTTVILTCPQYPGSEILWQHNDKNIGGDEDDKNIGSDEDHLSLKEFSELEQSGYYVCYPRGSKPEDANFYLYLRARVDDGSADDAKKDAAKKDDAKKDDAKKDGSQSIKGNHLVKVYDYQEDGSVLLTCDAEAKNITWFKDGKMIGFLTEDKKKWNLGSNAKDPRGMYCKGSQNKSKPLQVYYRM
Protocol: as §1

[4] = target: T4, G3A
T4 construct: Residue number counts from the N-terminus of CD3ε; also called CD3εγ G3A; CD3 mutant G3A
T4 single chain CD3ε-26mer linker-CD3γ: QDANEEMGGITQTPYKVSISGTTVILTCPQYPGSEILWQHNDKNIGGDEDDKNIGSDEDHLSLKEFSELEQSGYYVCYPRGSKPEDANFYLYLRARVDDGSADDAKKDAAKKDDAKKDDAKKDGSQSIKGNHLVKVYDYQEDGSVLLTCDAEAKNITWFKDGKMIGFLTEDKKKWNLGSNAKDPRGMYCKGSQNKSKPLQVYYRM
Protocol: as §1

[5] = target: T5, E5A
T5 construct: Residue number counts from the N-terminus of CD3ε; also called CD3εγ E5A; CD3 mutant E5A
T5 single chain CD3ε-26mer linker-CD3γ: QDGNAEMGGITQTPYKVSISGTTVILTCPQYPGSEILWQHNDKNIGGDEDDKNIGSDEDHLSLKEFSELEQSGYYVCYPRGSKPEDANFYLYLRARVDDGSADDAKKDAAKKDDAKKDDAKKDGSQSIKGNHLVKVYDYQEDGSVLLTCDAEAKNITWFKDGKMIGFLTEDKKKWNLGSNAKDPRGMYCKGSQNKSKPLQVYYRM
Protocol: as §1

[6] = target: T6, G8A
T6 construct: Residue number counts from the N-terminus of CD3ε; also called CD3εγ G8A
T6 single chain CD3ε-26mer linker-CD3γ: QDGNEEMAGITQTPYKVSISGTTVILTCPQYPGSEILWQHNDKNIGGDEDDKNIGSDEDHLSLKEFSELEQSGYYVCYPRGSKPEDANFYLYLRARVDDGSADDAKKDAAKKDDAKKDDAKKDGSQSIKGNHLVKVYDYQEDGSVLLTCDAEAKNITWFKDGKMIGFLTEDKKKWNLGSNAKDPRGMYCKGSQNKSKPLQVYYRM
Protocol: as §1

B1: hu38E4.v1 Fab (Fab, V domains shown)
VH: EVQLVQSGAEVKKPGASVKVSCKASGFTFTSYYIHWVRQAPGQGLEWIGWIYPENDNTKYNEKFKDRVTITADTSTSTAYLELSSLRSEDTAVYYCARDGYSRYYFDYWGQGTLVTVSS
VL: DIVMTQSPDSLAVSLGERATINCKSSQSLLNSRTRKNYLAWYQQKPGQSPKLLIYWTSTRKSGVPDRFSGSGSGTDFTLTISSLQAEDVAVYYCKQSFILRTFGQGTKVEIK
notes: Humanized anti-CD3 Fab; Point mutants of it were expressed as Fabs in HEK293 cells
Kd [1]: 6 nM | Kd [2]: 1000 nM | Kd [3]: 13 nM | Kd [4]: 7 nM | Kd [5]: 7 nM | Kd [6]: 8 nM
